Patent US20020160011A1, “ADJUVANT COMPOSITIONS FOR VACCINES” (priority 1997, published 2002)

B1: IL12: murine IL12 purified from the supernatant of transfected P1HTR cells; heterodimeric cytokine (protein, UniProt P43431 23-215; P43432 23-335, looked up)
Interleukin-12 subunit alpha: RVIPVSGPARCLSQSRNLLKTTDDMVKTAREKLKHYSCTAEDIDHEDITRDQTSTLKTCLPLELHKNESCLATRETSSTTRGSCLPPQKTSLMMTLCLGSIYEDLKMYQTEFQAINAALQNHNHQQIILDKGMLVAIDELMQSLNHNGETLRQKPPVGEADPYRVKMKLCILLHAFSTRVVTINRVMGYLSSA
Interleukin-12 subunit beta: MWELEKDVYVVEVDWTPDAPGETVNLTCDTPEEDDITWTSDQRHGVIGSGKTLTITVKEFLDAGQYTCHKGGETLSHSHLLLHKKENGIWSTEILKNFKNKTFLKCEAPNYSGRFTCSWLVQRNMDLKFNIKSSSSSPDSRAVTCGMASLSAEKVTLDQRDYEKYSVSCQEDVTCPTAEETLPIELALEARQQNKYENYSTSFFIRDIIKPDPPKNLQMKPLKNSQVEVSWEYPDSWSTPHSYFSLKFFVRIQRKKEKMKETEEGCNQKGAFLVEKTSTEVQCKGGNVCVQAQDRYYNSSCSKWACVPCRVRS
B2: IL-7: other cytokine tested with the QS21/MPL adjuvant (protein, UniProt P13232 26-177, looked up)
Interleukin-7: DCDIEGKDGKQYESVLMVSIDQLLDSMKEIGSNCLNNEFNFFKRHICDANKEGMFLFRAARKLRQFLKMNSTGDFDLHLLKVSEGTTILLNCTGQVKGRKPAALGEAQPTKSLEENKSLKEQKKLNDLCFLKRLLQEIKTCWNKILMGTKEH

Columns and labels:
[1] = Ability of other cytokines to enhance the effect of the QS21/MPL adjuvant; details: cytokine added in place of IL-12
[2] = Systemic toxicity of locally injected IL12 in immunised mice; format: in vivo

Molecule	enhancement of the effect of the QS21/MPL adjuvant [1]	systemic toxicity ([2]; decreased IL12 dose ('at that dose', b48: 10ng or 30 ng as printed))	systemic toxic effects ([2]; high dose of IL12 (100ng (1000U)/mouse/day), P1A experiment)	systemic toxicity ([2]; high dose of IL12 (1μg/mouse/day), injected locally, P198 experiments)
IFN-γ: other cytokine tested with the QS21/MPL adjuvant	unable to enhance			
GM-CSF: other cytokine tested with the QS21/MPL adjuvant	unable to enhance			
IL-6: other cytokine tested with the QS21/MPL adjuvant	unable to enhance			
B1		largely reduced but not totally absent	we observed systemic toxic effects	systemic toxicity with symptoms similar to those observed in a LPS shock
B2	unable to enhance			
